{"source": "patent US20130071431A1", "about": "“Method for Preserving Polypeptides Using A Sugar and Polyethyleneimine” (Stabilitech Ltd., priority 2008, published 2013)", "molecules": {"B1": {"name": "G-CSF: human recombinant G-CSF (Sigma in Example 2; MBL JM-4094-10 in Examples 14 and 16) (protein, UniProt P09919 31-207, looked up)", "Granulocyte …": "TPLGPASSLPQSFLLKCLEQVRKIQGDGAALQEKLVSECATYKLCHPEELVLLGHSLGIPWAPLSSCPSQALQLAGCLSQLHSGLFLYQGLLQALEGISPELGPTLDTLQLDVADFATTIWQQMEELGMAPALQPTQGAMPAFASAFQRRAGGVLVASHLQSFLEVSYRVLRHLAQP"}}, "key": {"[1]": {"assay": "HRP activity assay (OPD/H2O2) after freeze-drying and heat-freeze cycles", "type": "biochemical", "description": "Type IV horse radish peroxidase (HRP, Sigma-Aldrich) was diluted to 1 μg/ml in:\nThe PEI was obtained from Sigma (P3143, Mn 60,000). The PEI concentration was based on Mn. 10×100 μl volumes of each of the above solutions were prepared in 5 ml freeze-drying vials. Five replicates of each solution were freeze-dried from minus 32° C. over a 3 day cycle on a VirTis Advantage laboratory freeze-dryer using the protocol described in Example 6.\nOne vial from each solution of the liquid and dried samples was placed at 4° C. while the rest were frozen to −20° C. Samples from each of the liquid and dry solutions were subjected to 2, 4, and 6 heat-freeze cycles by removing them from the −20° C. freezer and placing them in an incubator set at 37° C. for 4 hours before replacing them in the freezer for 20 hrs 2, 4 and 6 times. 1 vial of each was retained at −20° C. as a control.\nWhen the cycling was completed all the samples, including the −20° C. and 4° C. maintained non-cycled controls were allowed to equilibrate to room temperature. The freeze-dried samples were then reconstituted with 100 μl/vial of deionised water at room temperature.\nTriplicate 10 μl samples were removed from each vial into wells of a flat bottomed ELISA plate (Nunc Maxisorb). To each well was then added 50 ul of a chromogen/substrate solution containing 0.4 mg/ml orthophenylene diamine (OPD) and 0.4 ul/ml 30% hydrogen peroxide (H2O2). Colour was allowed to develop before the reaction was stopped by the addition of 50 μl/well of 1M sulphuric acid (H2SO4). Absorbance was measured at 490 nm on a BioTek Synergy HT spectrophotometer and plotted as optical density (OD)."}, "[2]": {"assay": "Beta-galactosidase assay with x-gal (Example 11)", "type": "biochemical", "conditions": "1M Suc, 100 mM Raf", "description": "Excipients mixtures containing β-galactosidase were prepared according to the table below and vortexed. 10 units of β-galactosidase were added to each vial. 200 μl of the vortexed mixture was placed in each appropriately labelled 5 ml glass vials. PEI was obtained from Sigma (P3143, Mn 60,000).\nThe condenser chamber was −70° C. However there was no shelf control on the freeze-drying unit.\nFollowing freeze-drying, vials were reconstituted in 1 ml PBS. 100 μl of the resulting solution from each vial was added in duplicate (giving a total of 6 readings per excipient type) to each well of a flat bottom 96 well plate. The substrate x-gal was added as according to the manufacturer's instructions. Briefly, a stock solution of 20 mg/ml was made in DMSO and used at a 1 mg/ml working concentration. 100 μl was added to each well and the solution allowed to develop over 10 minutes. Following development, absorbance was measured at 630 nm on a synergy HT microplate. Background from blank wells was then subtracted from all the readings and results assessed using Prism Graphpad."}, "[3]": {"system": "HL60 cells (ERK1/2 phosphorylation)", "assay": "HL60 cell stimulation assay, immunoblot of phosphorylated and total ERK1/2", "type": "cell-based", "description": "A lyophilised sample of G-CSF was reconstituted to a concentration of 10 μg/ml. 160 μl of sucrose (1.82M) and 40 μl of raffinose (0.75M) were mixed with 50 μl of PEI (at a concentration of 150 nM based on Mn) to complete the preservation mixture. 50 μl of the reconstituted G-CSF solution was added and mixed well.\n100 μl aliquots of the final mixture was distributed into separate vials, and frozen or freeze-dried. Lyophilisation was carried out overnight as described in Example 1. […] Following incubation, the samples were reconstituted in RPMI prior to use.\nHL60 cells (shown to be mycoplasma free) were maintained in phenol red containing RPMI 1640 supplemented with 10% foetal bovine serum (FBS) and 2 mM glutamine. Cells were passaged weekly and medium was replenished every 2-3 days.\nFor stimulation assays HL60 cells were harvested and transferred to serum free medium at a density of 5×10^5 perwell of a 6 well plate. After 24 hours cells were stimulated for 5 minutes with the treatments shown in FIG. 2 (100 ng/ml G-CSF) and as indicated below:\nWhole cell extracts were resolved by SDS-PAGE and then transferred to nylon membranes, which were immunoprobed with antibodies against phosphorylated and total ERK1/2.\nCell suspensions were harvested (1000 rpm for 5 minutes) and washed with ice-cold PBS. Cell pellets were then lysed in extraction buffer (1% (v/v) Triton X100, […], pH 7.4, 5 mM EDTA, 50 mM NaCl, 50 mM sodium fluoride 2 mM Na3VO4 and 1 tablet of Complete™ inhibitor mix (Boehringer) per 10 ml of buffer) and homogenised by passage through a 26-gauge needle 6 times. The lysate was incubated on ice for 10 minutes then clarified by centrifugation (14,000 rpm for 10 minutes at 4° C.). The protein concentration was then quantified using the […] (Biorad, Inc.). Equal amounts of protein ([…]) were resolved by SDS-PAGE (10% gels) and then subjected to immunoblot analysis. Antigen-antibody interactions were detected with ECL (Pierce, UK)."}, "[4]": {"system": "HL-60 cells (phospho-ERK1/ERK2)", "assay": "Cell-based ELISA of phosphorylated ERK1/ERK2 in HL-60 cells", "description": "Sucrose solution was prepared by adding 32 g sucrose powder to 32 ml PBS in a 50 ml falcon tube to give a final volume of 52 ml correlating to a final concentration of 61.54%. The solution was gently heated in a microwave to assist initial solvation but thereafter stored at 4° C.\nRaffinose solution was prepared by adding 4 g raffinose to 8 ml PBS in a 50 ml falcon tube to give a final volume of 10.2 ml corresponding to a final concentration of 39.2%. The solution was heated in a microwave to allow complete solvation.\nTo produce the final sugar mix, the sucrose and raffinose solutions described above were mixed in a 4:1 ratio. In practise, 32 ml sucrose solution was mixed with 8 ml raffinose solution. Once composed, sugar mix was stored at 4° C. and suffered no precipitation.\n6 g of PEI (50% w/v) was added to 500 ml PBS to make 6 mg/ml then diluted 1 in 10 to make 600 ug/ml. 600 μg/ml was then diluted to make 100 μg/ml solution of PEI. Serial 1 in 10 dilutions were prepared in PBS to a concentration of 0.01 μg/ml. For final concentrations of PEI refer to Table 2 below. Concentrations were calculated based on Mn.\n10 μg of 98% purified recombinant human G-CSF was reconstituted in 1 ml of PBS and diluted to 0.2 ng/ml in PBS (1 in 50,000 dilution), with a starting concentration 10 μg/ml. The G-CSF was aliquoted in 15 μl in Eppendorf tubes and stored at −20° C. for further use.\nFirst dilution: 10 μl of G-CSF at 10 μg/ml was added to 990 μl of PBS (1 in 100 dilutions). Second dilution: 10 μl of 1 in 100 dilutions of G-CSF was added to 4.99 ml of PBS (1 in 500 dilutions). For final concentrations of G-CSF refer to Table 2.\nExcipients were prepared according to Table 2. The final concentration of G-CSF was 0.2 ng/ml per vial. The excipients were vortexed to mix and 100 μl placed in each appropriately labelled 5 ml glass vial. Samples were freeze dried by the VirTis Advantage freeze dryer for approximately 3 days.\nSamples were prepared as 100 μl aliquots. Freeze-dried samples were resuspended in 100 μl of water.\nThe ELISA assay method described below was followed as general assay procedure of cell base assay's kit (R&D Systems).\nHL-60 cells were maintained in phenol red containing RPMI 1640 supplemented with 20% foetal bovine serum (FBS), Glutamine and Penicillin Streptomycin. HL-60 cells were passaged weekly and medium was replenished every 2-3 days.\nThe HL-60 (passage three) were transferred to a centrifuge tube and spun down at 1300 rpm, for 5 minutes at 4° C. The supernatant was poured off into a T-75 flask. The pellet was resuspended in 10 ml cold media.\n200 μl of cell suspension was transferred into an Eppendorf tube by using a 5 ml pipette. 100 μl of cell suspension was added to 100 μl of trypan blue into another Eppendorf tube and mixed. […]"}, "[5]": {"conditions": "native (untreated) G-CSF, 100 ng/ml, 5 minutes, serum starved HL60 cells"}}, "data": [{"molecule": "HRP: Type IV horse radish peroxidase (HRP, Sigma-Aldrich)", "values": [{"measurement": "HRP activity (OD 490 nm)", "setting": "[1]; 1M Suc/100 mM Raf with or without 16.6 nM PEI versus PBS alone, all treatments and storage conditions", "value": "better maintained"}, {"measurement": "HRP activity after heat/freeze cycles", "setting": "[1]; excipient-treated samples, 6 heat/freeze cycles (37° C. 4 hours / −20° C. 20 hrs)", "value": "still maintained more HRP activity than unchallenged samples in PBS"}, {"measurement": "loss of HRP activity", "setting": "[1]; sugars, especially in combination with PEI, at the initial freeze-drying stage", "value": "significantly reduces loss of HRP activity"}]}, {"molecule": "β-galactosidase: β-galactosidase enzyme (Sigma)", "values": [{"measurement": "β-galactosidase activity following freeze-drying", "setting": "[2]; 13.3 μM PEI, compared to sucrose/raffinose alone", "value": "further enhanced"}, {"measurement": "β-galactosidase activity following freeze-drying", "setting": "[2]; no PEI, compared to PBS", "value": "high in sucrose/raffinose excipients compared to PBS"}]}, {"molecule": "B1", "values": [{"measurement": "potency (ERK1/2 phosphorylation) compared to untreated G-CSF", "setting": "[3]; G-CSF mixed with excipient and freeze-dried (FIG. 2C)", "value": "maintain the potency"}, {"measurement": "activity (ERK1/2 phosphorylation) compared to untreated G-CSF", "setting": "[3]; G-CSF mixed with excipient then heat treated 37° C. for 72 hours, not freeze-dried (FIG. 2B)", "value": "marked loss of activity"}, {"measurement": "protection against heat inactivation (ERK1/2 phosphorylation)", "setting": "[3]; G-CSF mixed with excipient, freeze-dried and heat treated 37° C. for 72 hours (FIG. 2D)", "value": "protect G-CSF against heat inactivation"}, {"measurement": "ERK1/2 phosphorylation", "setting": "[3]; [5]", "value": "enhance phosphorylation"}, {"measurement": "total ERK1/2 levels", "setting": "[3]; [5]", "value": "without any effect"}, {"measurement": "level of phosphorylated ERK1/ERK2", "setting": "[4]; 1M Suc, 0.1M Raf with 1.6 μM, 0.16 μM or 0.016 μM PEI, freeze dried, heat treated at 56° C. (15 min, 1 h, 2 h, O/N)", "value": "higher level of phosphorylated ERK1/ERK2"}, {"measurement": "protection of G-CSF (ERK 1/2 phosphorylation)", "setting": "[4]; 1M Suc, 0.1M Raf with 1.6 μM, 0.16 μM or 0.016 μM PEI, freeze dried, 37° C. or 56° C. for 1 week", "value": "protects and stabilises G-CSF"}, {"measurement": "efficacy (phosphorylated ERK1/ERK2)", "setting": "[4]; freeze-dried with high level of PEI, heat treated at 56° C.", "value": "greater efficacy"}, {"measurement": "protection of G-CSF (ERK 1/2 phosphorylation)", "setting": "[4]; sugars with PEI final concentration of 1.6 μM, freeze dried, 37° C. and 56° C. for 1 week", "value": "highest level of protection"}]}]}
